The values that follow are results of earlier work, collected in patent US20230076733A1, “Combination Therapy” (AGENCY FOR SCIENCE, TECHNOLOGY AND RESEARCH, priority 2020, published 2023).

For this series the following is noted: phase 3 trials, cited from earlier work.

B1: Figitumumab (antibody, chains of the INN, looked up)
heavy: EVQLLESGGGLVQPGGSLRLSCTASGFTFSSYAMNWVRQAPGKGLEWVSAISGSGGTTFYADSVKGRFTISRDNSRTTLYLQMNSLRAEDTAVYYCAKDLGWSDSYYYYYGMDVWGQGTTVTVSSASTKGPSVFPLAPCSRSTSESTAALGCLVKDYFPEPVTVSWNSGALTSGVHTFPAVLQSSGLYSLSSVVTVPSSNFGTQTYTCNVDHKPSNTKVDKTVERKCCVECPPCPAPPVAGPSVFLFPPKPKDTLMISRTPEVTCVVVDVSHEDPEVQFNWYVDGVEVHNAKTKPREEQFNSTFRVVSVLTVVHQDWLNGKEYKCKVSNKGLPAPIEKTISKTKGQPREPQVYTLPPSREEMTKNQVSLTCLVKGFYPSDIAVEWESNGQPENNYKTTPPMLDSDGSFFLYSKLTVDKSRWQQGNVFSCSVMHEALHNHYTQKSLSLSPG
light: DIQMTQFPSSLSASVGDRVTITCRASQGIRNDLGWYQQKPGKAPKRLIYAASRLHRGVPSRFSGSGSGTEFTLTISSLQPEDFATYYCLQHNSYPCSFGQGTKLEIKRTVAAPSVFIFPPSDEQLKSGTASVVCLLNNFYPREAKVQWKVDNALQSGNSQESVTEQDSKDSTYSLSSTLTLSKADYEKHKVYACEVTHQGLSSPVTKSFNRGEC
In the case of B1, the “serious adverse events and deaths” value (lung cancer, Figitumumab in combination with one chemotherapy regimen versus carboplatin or paclitaxel chemotherapy alone) was 21%. Where the note is “Figitumumab combined with established chemotherapy regimens (carboplatin and paclitaxel)”, the survival result is listed as “failed to improve survival”.
